{"source": "the supplement of paper PMC10567573", "parents": {"B1": {"name": "STK38L (parent)", "chain": "FCIDSENRIGNSGVEEIKGHPFFE"}}}
{"variants_of": "B1", "experiment": "protein stability index of a GFP-peptide fusion (GPS, HEK-293T) (PSI 1-6); higher = more stable", "conditions": "c terminus: a fixed tail appended"}
{"variant": "FCIDSENRIGHSGVEEIKGHPFFE", "note": "[N11H]", "protein stability index": 2.38}
{"variant": "FCIDSENRIGRSGVEEIKGHPFFE", "note": "[N11R]", "protein stability index": 2.31}
{"variant": "FCIDSENRIGVSGVEEIKGHPFFE", "note": "[N11V]", "protein stability index": 2}
{"variant": "FCIDSENRIGPSGVEEIKGHPFFE", "note": "[N11P]", "protein stability index": 2.12}
{"variant": "FCIDSENRIGKSGVEEIKGHPFFE", "note": "[N11K]", "protein stability index": 2.03}
{"variant": "FCIDSENRIGGSGVEEIKGHPFFE", "note": "[N11G]", "protein stability index": 2.35}
{"variant": "FCIDSENRIGYSGVEEIKGHPFFE", "note": "[N11Y]", "protein stability index": 2.12}
{"variant": "FCIDSENRIGTSGVEEIKGHPFFE", "note": "[N11T]", "protein stability index": 1.81}
{"variant": "FCIDSENRIGQSGVEEIKGHPFFE", "note": "[N11Q]", "protein stability index": 2.73}
{"variant": "FCIDSENRIGESGVEEIKGHPFFE", "note": "[N11E]", "protein stability index": 3.11}
{"variant": "FCIDSENRIGDSGVEEIKGHPFFE", "note": "[N11D]", "protein stability index": 2.73}
{"variant": "FCIDSENRIGCSGVEEIKGHPFFE", "note": "[N11C]", "protein stability index": 2.3}
{"variant": "FCIDSENRIGWSGVEEIKGHPFFE", "note": "[N11W]", "protein stability index": 1.57}
{"variant": "FCIDSENRIGFSGVEEIKGHPFFE", "note": "[N11F]", "protein stability index": 1.88}
{"variant": "FCIDSENRIGLSGVEEIKGHPFFE", "note": "[N11L]", "protein stability index": 1.65}
{"variant": "FCIDSENRIGSSGVEEIKGHPFFE", "note": "[N11S]", "protein stability index": 1.99}
{"variant": "FCIDSENRIGMSGVEEIKGHPFFE", "note": "[N11M]", "protein stability index": 1.83}
{"variant": "FCIDSENRIGASGVEEIKGHPFFE", "note": "[N11A]", "protein stability index": 2.11}
{"variant": "FCIDSENRIRNSGVEEIKGHPFFE", "note": "[G10R]", "protein stability index": 2.98}
{"variant": "FCIDSENRIWNSGVEEIKGHPFFE", "note": "[G10W]", "protein stability index": 1.1}
{"variant": "FCIDSENRITNSGVEEIKGHPFFE", "note": "[G10T]", "protein stability index": 2.38}
{"variant": "FCIDSENRILNSGVEEIKGHPFFE", "note": "[G10L]", "protein stability index": 1.96}
{"variant": "FCIDSENRISNSGVEEIKGHPFFE", "note": "[G10S]", "protein stability index": 2.39}
{"variant": "FCIDSENRIYNSGVEEIKGHPFFE", "note": "[G10Y]", "protein stability index": 1.79}
{"variant": "FCIDSENRIQNSGVEEIKGHPFFE", "note": "[G10Q]", "protein stability index": 3.48}
{"variant": "FCIDSENRIVNSGVEEIKGHPFFE", "note": "[G10V]", "protein stability index": 1.54}
{"variant": "FCIDSENRIPNSGVEEIKGHPFFE", "note": "[G10P]", "protein stability index": 2.31}
{"variant": "FCIDSENRIMNSGVEEIKGHPFFE", "note": "[G10M]", "protein stability index": 2.11}
{"variant": "FCIDSENRIKNSGVEEIKGHPFFE", "note": "[G10K]", "protein stability index": 2.53}
{"variant": "FCIDSENRINNSGVEEIKGHPFFE", "note": "[G10N]", "protein stability index": 3.64}
{"variant": "FCIDSENRIGNSIVEEIKGHPFFE", "note": "[G13I]", "protein stability index": 2.47}
{"variant": "FCIDSENRIGNSCVEEIKGHPFFE", "note": "[G13C]", "protein stability index": 2.1}
{"variant": "FCIDSENRIGNSYVEEIKGHPFFE", "note": "[G13Y]", "protein stability index": 2.28}
{"variant": "FCIDSENRIGNSTVEEIKGHPFFE", "note": "[G13T]", "protein stability index": 2.75}
{"variant": "FCIDSENRIGNSFVEEIKGHPFFE", "note": "[G13F]", "protein stability index": 2.95}
{"variant": "FCIDSENRIGNSEVEEIKGHPFFE", "note": "[G13E]", "protein stability index": 3.12}
{"variant": "FCIDSENRIGNSRVEEIKGHPFFE", "note": "[G13R]", "protein stability index": 2.26}
{"variant": "FCIDSENRIGNSKVEEIKGHPFFE", "note": "[G13K]", "protein stability index": 2.44}
{"variant": "FCIDSENRIGNSQVEEIKGHPFFE", "note": "[G13Q]", "protein stability index": 2.44}
{"variant": "FCIDSENRIGNSHVEEIKGHPFFE", "note": "[G13H]", "protein stability index": 2.56}
{"variant": "FCIDSENRIGNSDVEEIKGHPFFE", "note": "[G13D]", "protein stability index": 2.55}
{"variant": "FCIDSENRIGNSNVEEIKGHPFFE", "note": "[G13N]", "protein stability index": 2.73}
{"variant": "FCIDSENRIGNSWVEEIKGHPFFE", "note": "[G13W]", "protein stability index": 2.87}
{"variant": "FCIDSENRIGNSVVEEIKGHPFFE", "note": "[G13V]", "protein stability index": 1.97}
{"variant": "FCIDSENRIGNSMVEEIKGHPFFE", "note": "[G13M]", "protein stability index": 2.12}
{"variant": "FCIDSENRIGNSPVEEIKGHPFFE", "note": "[G13P]", "protein stability index": 2.68}
{"variant": "FCIDSENRIGNSAVEEIKGHPFFE", "note": "[G13A]", "protein stability index": 2.07}
{"variant": "FCIDSENRIGNSLVEEIKGHPFFE", "note": "[G13L]", "protein stability index": 2.22}
{"variant": "FCIDSENRIGNSGPEEIKGHPFFE", "note": "[V14P]", "protein stability index": 2.46}
{"variant": "FCIDSENRIGNSGEEEIKGHPFFE", "note": "[V14E]", "protein stability index": 2.96}
{"variant": "FCIDSENRIGNSGGEEIKGHPFFE", "note": "[V14G]", "protein stability index": 2.01}
{"variant": "FCIDSENRIGNSGYEEIKGHPFFE", "note": "[V14Y]", "protein stability index": 2.96}
{"variant": "FCIDSENRIGNSGIEEIKGHPFFE", "note": "[V14I]", "protein stability index": 2.1}
{"variant": "FCIDSENRIGNSGLEEIKGHPFFE", "note": "[V14L]", "protein stability index": 1.54}
{"variant": "FCIDSENRIGNSGAEEIKGHPFFE", "note": "[V14A]", "protein stability index": 3.13}
{"variant": "FCIDSENRIGNSGFEEIKGHPFFE", "note": "[V14F]", "protein stability index": 1.6}
{"variant": "FCIDSENRIGNSGREEIKGHPFFE", "note": "[V14R]", "protein stability index": 2.32}
{"variant": "FCIDSENRIGNSGTEEIKGHPFFE", "note": "[V14T]", "protein stability index": 2.29}
{"variant": "FCIDSENRIGNSGDEEIKGHPFFE", "note": "[V14D]", "protein stability index": 2.68}
{"variant": "FCIDSENRIGNSGQEEIKGHPFFE", "note": "[V14Q]", "protein stability index": 2.74}
{"variant": "FCIDSENRIGNSGSEEIKGHPFFE", "note": "[V14S]", "protein stability index": 2.32}
{"variant": "FCIDSENRIGNSGCEEIKGHPFFE", "note": "[V14C]", "protein stability index": 2.27}
{"variant": "FCIDSENRIGNSGWEEIKGHPFFE", "note": "[V14W]", "protein stability index": 1.96}
{"variant": "FCIDSENRIGNSGMEEIKGHPFFE", "note": "[V14M]", "protein stability index": 2.47}
{"variant": "FCIDSENRIGNSGKEEIKGHPFFE", "note": "[V14K]", "protein stability index": 2.72}
{"variant": "FCIDSENRIGNSGNEEIKGHPFFE", "note": "[V14N]", "protein stability index": 2.8}
{"variant": "FCIDSENRIGNSGHEEIKGHPFFE", "note": "[V14H]", "protein stability index": 2.06}
{"variant": "FCIDSENRIGNSGVDEIKGHPFFE", "note": "[E15D]", "protein stability index": 1.62}
{"variant": "FCIDSENRIGNSGVGEIKGHPFFE", "note": "[E15G]", "protein stability index": 2.08}
{"variant": "FCIDSENRIGNSGVAEIKGHPFFE", "note": "[E15A]", "protein stability index": 1.99}
{"variant": "FCIDSENRIGNSGVFEIKGHPFFE", "note": "[E15F]", "protein stability index": 1.73}
{"variant": "FCIDSENRIGNSGVLEIKGHPFFE", "note": "[E15L]", "protein stability index": 1.9}
{"variant": "FCIDSENRIGNSGVIEIKGHPFFE", "note": "[E15I]", "protein stability index": 1.46}
{"variant": "FCIDSENRIGNSGVHEIKGHPFFE", "note": "[E15H]", "protein stability index": 2}
{"variant": "FCIDSENRIGNSGVKEIKGHPFFE", "note": "[E15K]", "protein stability index": 2.22}
{"variant": "FCIDSENRIGNSGVCEIKGHPFFE", "note": "[E15C]", "protein stability index": 2.68}
{"variant": "FCIDSENRIGNPGVEEIKGHPFFE", "note": "[S12P]", "protein stability index": 2.32}
{"variant": "FCIDSENRIGNIGVEEIKGHPFFE", "note": "[S12I]", "protein stability index": 2.35}
{"variant": "FCIDSENRIGNVGVEEIKGHPFFE", "note": "[S12V]", "protein stability index": 2}
{"variant": "FCIDSENRIGNLGVEEIKGHPFFE", "note": "[S12L]", "protein stability index": 1.9}
{"variant": "FCIDSENRIGNTGVEEIKGHPFFE", "note": "[S12T]", "protein stability index": 2.52}
{"variant": "FCIDSENRIGNEGVEEIKGHPFFE", "note": "[S12E]", "protein stability index": 2.52}
{"variant": "FCIDSENRIGNMGVEEIKGHPFFE", "note": "[S12M]", "protein stability index": 1.72}
{"variant": "FCIDSENRIGNRGVEEIKGHPFFE", "note": "[S12R]", "protein stability index": 2.35}
{"variant": "FCIDSENRIGNWGVEEIKGHPFFE", "note": "[S12W]", "protein stability index": 1.5}
{"variant": "FCIDSENRIGNDGVEEIKGHPFFE", "note": "[S12D]", "protein stability index": 2.32}
{"variant": "FCIDSENRIGNKGVEEIKGHPFFE", "note": "[S12K]", "protein stability index": 2.78}
{"variant": "FCIDSENRIGNQGVEEIKGHPFFE", "note": "[S12Q]", "protein stability index": 2.2}
{"variant": "FCIDSENRIGNNGVEEIKGHPFFE", "note": "[S12N]", "protein stability index": 2.55}
{"variant": "FCIDSENRIGNAGVEEIKGHPFFE", "note": "[S12A]", "protein stability index": 1.98}
{"variant": "FCIDSENRIGNGGVEEIKGHPFFE", "note": "[S12G]", "protein stability index": 1.91}
{"variant": "FCIDSENRIGNYGVEEIKGHPFFE", "note": "[S12Y]", "protein stability index": 1.99}
{"variant": "FCIDSENRIGNFGVEEIKGHPFFE", "note": "[S12F]", "protein stability index": 1.84}
{"variant": "FCIDSENRIGNHGVEEIKGHPFFE", "note": "[S12H]", "protein stability index": 2.56}
